The target of this series is T1, RB1 (human) (UniProt P06400).
T1 sequence: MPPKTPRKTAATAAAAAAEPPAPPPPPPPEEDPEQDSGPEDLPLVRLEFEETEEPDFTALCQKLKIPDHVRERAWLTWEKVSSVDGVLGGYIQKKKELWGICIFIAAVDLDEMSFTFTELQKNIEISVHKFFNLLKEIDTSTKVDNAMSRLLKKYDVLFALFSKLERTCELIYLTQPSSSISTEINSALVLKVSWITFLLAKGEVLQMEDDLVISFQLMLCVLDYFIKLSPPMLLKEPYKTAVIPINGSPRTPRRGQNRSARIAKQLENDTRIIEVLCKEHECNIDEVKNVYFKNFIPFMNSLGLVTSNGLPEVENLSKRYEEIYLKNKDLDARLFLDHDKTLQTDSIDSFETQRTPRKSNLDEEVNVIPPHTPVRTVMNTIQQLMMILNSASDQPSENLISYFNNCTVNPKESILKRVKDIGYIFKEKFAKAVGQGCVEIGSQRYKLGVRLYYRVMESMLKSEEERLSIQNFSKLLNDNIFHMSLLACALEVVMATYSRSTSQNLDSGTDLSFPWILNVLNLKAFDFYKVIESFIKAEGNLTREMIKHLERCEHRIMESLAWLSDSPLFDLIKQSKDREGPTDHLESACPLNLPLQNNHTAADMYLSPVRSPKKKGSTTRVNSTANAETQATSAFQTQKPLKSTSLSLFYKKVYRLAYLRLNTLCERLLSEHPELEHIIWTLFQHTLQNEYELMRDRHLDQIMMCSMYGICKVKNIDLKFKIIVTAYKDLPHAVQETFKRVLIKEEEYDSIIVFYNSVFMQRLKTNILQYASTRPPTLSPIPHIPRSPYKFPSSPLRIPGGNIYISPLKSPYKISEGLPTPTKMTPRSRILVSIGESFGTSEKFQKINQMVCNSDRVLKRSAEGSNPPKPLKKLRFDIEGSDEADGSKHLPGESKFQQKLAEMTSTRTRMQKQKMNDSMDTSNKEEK
The series can be described thus: SPR. As to conditions: DNA immobilized; 650 mM NaCl; 10 mM Tris-HCl, 150 mM NaCl, 5 mM KCl, pH 7.4; EMSA room temperature 30 min, 12% PAGE in TBE; SPR 25 C (RB1 SPR with 650 mM NaCl).

CGGGGGGTTTTGGGCGGC [RB1 G4] had a Kd of 440 nM.

Source of the values: publication PMC3672139.
